In patent US20180333502A1:

Biological target: activated human CD4 T cells (GITR) (human) (UniProt Q9Y5U5)
Assay: FACS binding to activated human CD4 T cells; isotype control

activated human CD4 T cells (GITR) (human), sequence (Q9Y5U5 26-241): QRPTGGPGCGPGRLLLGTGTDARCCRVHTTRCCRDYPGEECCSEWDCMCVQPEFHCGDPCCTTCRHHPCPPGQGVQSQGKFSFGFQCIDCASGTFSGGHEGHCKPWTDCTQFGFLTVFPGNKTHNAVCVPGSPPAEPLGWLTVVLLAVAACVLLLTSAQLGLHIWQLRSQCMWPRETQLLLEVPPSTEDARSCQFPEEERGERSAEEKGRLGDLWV

EC50 [nM]	Substance
132	unrelated hIgG1
6.72	unrelated hIgG2
